Among the data in PMC8440770 are stoichiometry N values, retold here.

The assay deals with spMSP1D1 (MSP1D1 with SpyCatcher at the N-terminus and SpyTag at the C-terminus, circularized). In words: cross-linking + other: fluorescence fluctuation spectroscopy; spMSPs in PC lipid nanodiscs (cNDs); cross-linking: cNDs 0.5 µM in PBS with EGS, room temperature 1 h, SDS-PAGE; fluctuation spectroscopy: molecular brightness of FITC-labeled spMSPs and cNDs (100 pM) in reconstitution buffer by photon counting histogram.

As for “spMSP1D1 (MSP1D1 with SpyCatcher at the N-terminus and SpyTag at the C-terminus, circularized)”, the stoichiometry N was 2.

As usually defined, the stoichiometry N is the number of molecules, sites or subunits per partner or assembly.
